Experiments:
[1] = molecular target: Human CTLA4 (ligand competition ELISA) (human, UniProt P16410 36-161, limits assumed); assay: ELISA, blocking of CTLA4-CD80
[2] = molecular target: T1, Human CD28 on cells (human, UniProt P10747 19-220); assay: flow cytometry, Jurkat cells
T1 construct: Jurkat E6-1 cells, primary human T cells, or transfected HEK293F cells; also called CD28 on Jurkat cells; CD28 on human CD3+ T cells
Protocol: Next, the cells were washed twice with DPBS and further incubated with a APC-anti-human IgG Fc secondary antibody (1 μg/mL, 100 μL/well, Biolegend) for 30 minutes at 4° C. Finally, the cells were washed twice with DPBS and suspended in FACS buffer for flow cytometry analysis. For analysis, the Mean Fluorescence Intensity (MFI) values versus concentrations were plotted using FlowJo 10 software (FlowJo LLC) and the data were further fitted with four-parameter non-linear regression to obtain EC₅₀ values by GraphPad Prism version 7 for Windows, GraphPad Software, La Jolla California USA, www.graphpad.com.

[3] = molecular target: T2, Recombinant mouse CD28-Fc (mouse, UniProt P31041 20-150); assay: ELISA on coated recombinant mouse CD28-Fc, HRP anti-human IgG (Fab specific), A450; panel 'Mouse CD28'
T2 construct: not shown: Fc part
T2 sequence (P31041 20-150 limits assumed): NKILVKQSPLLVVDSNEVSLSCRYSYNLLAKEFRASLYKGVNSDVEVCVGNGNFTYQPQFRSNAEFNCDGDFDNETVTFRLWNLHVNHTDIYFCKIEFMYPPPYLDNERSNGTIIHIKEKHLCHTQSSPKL

[4] = molecular target: T3, His-tagged human CD28 protein (human, UniProt P10747 19-152); assay: Octet BLI, mAb captured;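 also: Anti-human Fc biosensors captured the antibodies, then His-tagged protein analytes at 100 nM associated for 300 s and dissociated for 300 s, fitted by a 1:1 Langmuir model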
T3 construct: not shown: His tag

[5] = molecular target: T4, His-tagged human CTLA4 protein (human, UniProt P16410 36-161, limits assumed); assay: Octet BLI, mAb captured;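 also: Anti-human Fc biosensors captured the antibodies, then His-tagged protein analytes at 100 nM associated for 300 s and dissociated for 300 s, fitted by a 1:1 Langmuir model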
T4 construct: not shown: His tag
T4 sequence (P16410 36-161 limits assumed): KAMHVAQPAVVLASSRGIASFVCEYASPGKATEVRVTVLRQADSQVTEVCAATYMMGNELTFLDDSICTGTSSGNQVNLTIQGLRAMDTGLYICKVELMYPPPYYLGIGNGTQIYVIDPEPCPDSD

[6] = molecular target: Human CD28 (ELISAs of Examples 4 and 13) (human, UniProt P10747 19-152, limits assumed); assay: ELISA, blocking of CD28-CD80
[7] = molecular target: T5, Recombinant human CD28-Fc (human, UniProt P10747 19-152); assay: ELISA, coated CD28-Fc
T5 construct: not shown: Fc part

[8] = molecular target: T6, TROP2 on tumor cell lines (UniProt P09758 27-323, limits assumed); assay: flow cytometry, NCI-N87 cells
T6 construct: whole, on cells; also called tumor-associated calcium signal transducer 2; TROP2 on H292, NCI-N87, HT-29
T6 sequence (looked up): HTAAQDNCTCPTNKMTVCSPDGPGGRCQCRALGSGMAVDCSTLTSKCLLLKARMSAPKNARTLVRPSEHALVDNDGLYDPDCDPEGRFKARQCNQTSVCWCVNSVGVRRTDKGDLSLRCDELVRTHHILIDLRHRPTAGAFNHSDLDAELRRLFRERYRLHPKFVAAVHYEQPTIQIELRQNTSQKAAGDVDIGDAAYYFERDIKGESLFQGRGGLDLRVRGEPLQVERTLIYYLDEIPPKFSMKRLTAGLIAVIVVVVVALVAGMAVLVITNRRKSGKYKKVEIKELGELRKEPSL
Protocol: (§1) H292, NCI-N87, or HT29 cells were cultured and seeded in 96-well plates at 1.0×10⁵ cells/well and incubated with serially diluted test anti-TROP2 BsAbs for 30 minutes at 4° C. in 2% FBS/RPMI1640 buffer. Next, the cells were washed twice with DPBS and further incubated with secondary anti-human IgG antibodies (APC-anti-human IgG Fc antibody, 1:300 dilution for H292 cell; APC-F (ab′) 2 fragment goat anti-human IgG (H+L), 1:500 dilution for NCI-N87 and HT29 cells) for 30 minutes at 4° C. Finally, the cells were washed twice with DPBS and resuspended in FACS buffer for flow cytometry analysis. For analysis, the MFI values versus concentrations were plotted using FlowJo 10 software (FlowJo LLC) and the data were further fitted with four-parameter non-linear regression to obtain EC₅₀ values by GraphPad Prism version 7 for Windows.

[9] = molecular target: T6, TROP2 on tumor cell lines; assay: flow cytometry, H292 cells
Protocol: as §1

[10] = molecular target: T6, TROP2 on tumor cell lines; assay: flow cytometry, HT-29 cells
Protocol: as §1

Human CTLA4 (ligand competition ELISA), sequence (P16410 36-161 limits assumed): as the sequence (P16410 36-161 limits assumed) above

B1: TY21580 (antibody, V domains shown)
VH: EVQLVESGGGLVQPGGSLRLSCAASGYSISSGYHWSWIRQAPGKGLEWLARIDWDDDKYYSTSLKSRLTISRDNSKNTLYLQLNSLRAEDTAVYYCARSYVYFDYWGQGTLVTVSS
VL: DIQLTQSPSSLSASVGDRVTITCRASQSVRGRFLAWYQQKPGKAPKLLIYDASNRATGIPSRFSGSGSGTDFTLTISSLQPEDFATYYCQQSSSWPPTFGQGTKVEIKR
[1]
  IC50: 37.2 nM

B2: TY24890 (antibody, human IgG4 S228P, kappa, V domains shown)
VH: EVQLVESGGGLVQPGGSLRLSCAASGYSISSGHHWGWIRQAPGKGLEWIGEIYHSGSTYYSPSLKSRVTISRDNSKNTLYLQLNSLRAEDTAVYYCARRELGYAYFDYWGQGTLVTVSS
VL: EIVLTQSPATLSLSPGERATLSCRASQDIRKYLAWYQQKPGQAPRLLIYAASTLQSGVPARFSGSGSGTDFTLTISSLEPEDFAVYYCQQYYRTPLTFGQGTKVEIKR
notes: hIgG4/S241P
[2]
  EC50: 0.59 nM
[3]
  binding result: no binding (tested: about 10^-6.9 M)
[4]
  Kd: 4.44 nM
  koff: 0.000437 s⁻¹
  kon: 98500 M⁻¹ s⁻¹
[5]
  Kd: 3.13 nM
  koff: 0.00344 s⁻¹
  kon: 1.1e+06 M⁻¹ s⁻¹
[6]
  IC50: 0.21 nM
[7]
  EC50: 1.55 nM

B3: TY27571 (bispecific antibody, human IgG1, kappa, N297A)
light: DIQLTQSPSSLSASVGDRVTITCRASQDVSIAVAWYQQKPGKAPKLLIYSASYRYTGVPARFSGSGSGTDFTLTISSLQPEDFATYYCQQHYITPLTFGQGTKVEIKRTVAAPSVFIFPPSDEQLKSGTASVVCLLNNFYPREAKVQWKVDNALQSGNSQESVTEQDSKDSTYSLSSTLTLSKADYEKHKVYACEVTHQGLSSPVTKSFNRGEC
heavy: QVQLLQSGSELKKPGASVKVSCKASGYTFTNYGINWVRQAPGQGLEWLGWIHTYTGEPTYTDDFKGRFVFSLDTSVSTAYLQISSLKADDTAVYYCARGGFGSSYWYFDVWGQGTLVTVSSASTKGPSVFPLAPSSKSTSGGTAALGCLVKDYFPEPVTVSWNSGALTSGVHTFPAVLQSSGLYSLSSVVTVPSSSLGTQTYICNVNHKPSNTKVDKKVEPKSCDKTHTCPPCPAPELLGGPSVFLFPPKPKDTLMISRTPEVTCVVVDVSHEDPEVKFNWYVDGVEVHNAKTKPREEQYASTYRVVSVLTVLHQDWLNGKEYKCKVSNKALPAPIEKTISKAKGQPREPQVYTLPPSRKKLTKNQVKLTCLVKGFYPSDIAVEWESNGQPENNYKTTPPVLDCDGSFFLYSKLTVDKSRWQQGNVFSCSVMHEALHNHYTQKSLSLSPGK
chain: DIQLTQSPSSLSASVGDRVTITCRASQSVDFHGISFLHWYQQKPGKAPKLLIYAASSLQSGVPSRFSGSGSGTDFTLTISSLQPEDFATYYCQQSYRSPRTFGQGTKVEIKGGGGSGGGGSGGGGSGGGGSEVQLVESGGGLVQPGGSLRLSCAASGFSLSTGGVGVSWIRQAPGKGLEWIGEIYHSGSTYYSPSLKSRVTISRDNSKNTLYLQLNSLRAEDTAVYYCARYEYYYYDFDYWGQGTLVTVSSEPKSSDKTHTCPPCPAPELLGGPSVFLFPPKPKDTLMISRTPEVTCVVVDVSHEDPEVKFNWYVDGVEVHNAKTKPREEQYASTYRVVSVLTVLHQDWLNGKEYKCKVSNKALPAPIEKTISKAKGQPREPQVYTDPPSRDELTKNQVSLTCLVDGFYPSDIAVEWESNGQPENCYKTTPPVLDSDGSFFLYSKLTVDKSRWQQGNVFSCSVMHEALHNHYTQDSLSLSPGK
notes: also called anti-TROP2xCD28 BsAb
[8]
  EC50: 0.911 nM
[9]
  EC50: 0.822 nM
[10]
  EC50: 0.559 nM

Reference: patent US20250257133A1 (ADAGENE PTE, published 2025)
